Target: SARS-CoV-2 Wuhan-Hu-1 receptor-binding domain (SARS-CoV-2 Wuhan-Hu-1)
Experiment: ELISA

B1: S2X324 mAb (antibody, V domains shown)
VH: QITLKESGPTLVKPTQTLTLTCTFSGFSVTTSGVGVGWIRQPPGKALEYLALIYWDDDKRYSTSLKSRLTITKDTSKNQVVLTMTNMDPVDTATYYCARHTIPSIFDYWGQGILVTVSS
VL: QPVLTQPASVSGSPGQSITISCTATSSDVGNYNYVSWYQHHPGKAPKLMIYEVSNRPSGVSNRFSGSKSGNTASLTISGLQAEDEADYYCSSYTSSSLLFGGGTKLTVL
- IC50: 0.0267 µg/mL

— paper PMC12945441 (2022)
